Where two headings read alike, the source gives them in different places.

Series [1] addresses T1, MsCAPP PP domain (MsPP111-328) (Marinitoga sp. 1137, UniProt PDB:7QAZ_1 1-219).
T1 sequence: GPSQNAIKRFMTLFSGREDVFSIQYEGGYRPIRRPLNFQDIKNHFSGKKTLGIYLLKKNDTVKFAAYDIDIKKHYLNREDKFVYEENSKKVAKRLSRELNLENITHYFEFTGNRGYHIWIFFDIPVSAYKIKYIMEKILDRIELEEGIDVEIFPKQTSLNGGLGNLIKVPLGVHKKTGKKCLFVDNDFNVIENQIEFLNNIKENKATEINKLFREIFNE
Put plainly: X-ray crystallography.

Series [2] deals with T1, MsCAPP PP domain (MsPP111-328). Description: X-ray crystallography. The source holds these as a separate data set.

Take AAAAATCAA (ssDNA) [primer initiation template 9-mer]: in series [1], the binding result is reported as “binds”.

B1: dsDNA 6-mer (dsDNA)
DNA 1: CGTGCG
DNA 2: CGTGCG
With B1, the binding result in series [2] is recorded as “binds”.

Source of the values: PMC9149119.
